This is an account of results in the supplement of paper PMC11780869.

The subject of this data set is Bacillus subtilis. The data set can be described thus: cleaved RNA product abundance (RNA/gDNA barcode ratio) relative to median wild-type variant (ratio to wild type); higher = more accumulation of the downstream cleavage product. To be noted: experiment (reporter, strain, medium): exp 8a: truncated aprE reporter, strain BJT201 with 2% xylose (RNase J1 expressed); cleavage site: glnRA (positions -5 to +31 mutated). In a few lines: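 B. subtilis strains with chromosomally integrated reporter mRNAs (truncated aprE or tetM) holding barcoded, mutagenized RNase Y cleavage-site windows grew in LB at 37°C from OD600 0.0003 to 0.3. Cleaved product abundance is each construct's RNA:gDNA barcode ratio, scaled to the median construct with the unmutated site. It came from sequencing barcodes of gel-selected, reverse-transcribed cleaved RNA and of genomic DNA.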
For “CGACATGTCCCGCTTCTTTCATTAATCAGTTAGCAACTGTTTTGCTATATACATTTACCATTTAAGAGGAGGAAT”, the “cleaved RNA product abundance” value came out at 0.636.
The result for “CGACATGTCCCGCTTCTTTCATTAATCAGTTAGCAACTGTTTTGCTATATACATTTACCCTTTAAGAGGAGGAAT” reads 1.22.
The value for “CGACATGTCCCGCTTCTTTCATTAATCAGTTAGCAACTGTTTTGCTATATACATTTACCGTTTAAGAGGAGGAAT” was 0.649; that for “CGACATGTCCCGCTTCTTTCATTAATCAGTTAGCAACTGTTTTGCTATATACATTTACCTTTTAAGAGGAGGAAT” was 0.763; that for “CGACATGTCCCGCTTCTTTCATTAATCAGTTAGCAACTGTTTTGCTATATACATTTACTTTTTAAGAGGAGGAAT” was 0.903.
Consider “CGACATGTCCCGCTTCTTTCATTAATCAGTTAGCAACTGTTTTGCTATATACATTTATCTTTTAAGAGGAGGAAT”, for which the “cleaved RNA product abundance” value amounted to 0.854.
The value for “CGACATGTCCCGCTTCTTTCATTAATCAGTTAGCAACTGTTTTGCTATATACTTTTACCTTTTAAGAGGAGGAAT” was 0.343.
“CGACATGTCCCGCTTCTTTCATTAATCAGTTAGCAACTGTTTTGCTATATAGATTTACCTTTTAAGAGGAGGAAT”: the “cleaved RNA product abundance” value stood at 0.842.
With “CGACATGTCCCGCTTCTTTCATTAATCAGTTAGCAACTGTTTTGCTATATATATTTACCTTTTAAGAGGAGGAAT”, the “cleaved RNA product abundance” value amounted to 0.759.
In the case of “CGACATGTCCCGCTTCTTTCATTAATCAGTTAGCAACTGTTTTGTTATATACATTTACCTTTTAAGAGGAGGAAT”, the “cleaved RNA product abundance” value came out at 0.523.
As to “CGACATGTCCCGCTTCTTTCATTAATCAGTTAGCAACTGTTTTTCTATATACATTTACCTTTTAAGAGGAGGAAT”, the “cleaved RNA product abundance” value turned out to be 0.642.
For “CGACATGTCCCGCTTCTTTCATTAATCAGTTAGCAACTTTTTTGCTATATACATTTACCTTTTAAGAGGAGGAAT”, the “cleaved RNA product abundance” value amounted to 1.18.
For the sequence “CGACATGTCCCGCTTCTTTCATTAATCAGTTAGCATCTGTTTTGCTATATACATTTACCTTTTAAGAGGAGGAAT”, the “cleaved RNA product abundance” value came out at 0.725.
For the sequence “CGACATGTCCCGCTTCTTTCATTAATCAGTTAGCTACTGTTTTGCTATATACATTTACCTTTTAAGAGGAGGAAT”, the “cleaved RNA product abundance” value turned out to be 0.423.
For “CGACATGTCCCGCTTCTTTCATTAATCAGTTAGTAACTGTTTTGCTATATACATTTACCTTTTAAGAGGAGGAAT”, the “cleaved RNA product abundance” value was 0.421.
For “CGACATGTCCCGCTTCTTTCATTAATCAGTTATCAACTGTTTTGCTATATACATTTACCTTTTAAGAGGAGGAAT”, the “cleaved RNA product abundance” value stood at 0.307.
For the sequence “CGACATGTCCCGCTTCTTTCATTAATCAGTTGGCAACTGTTTTGCTATATACATTTACCTTTTAAGAGGAGGAAT”, the “cleaved RNA product abundance” value turned out to be 0.497.
The result for “CGACATGTCCCGCTTCTTTCATTAATCAGTTTGCAACTGTTTTGCTATATACATTTACCTTTTAAGAGGAGGAAT” reads 0.686; that for “CGACATGTCCCGCTTCTTTCATTAATCATTTAGCAACTGTTTTGCTATATACATTTACCTTTTAAGAGGAGGAAT”, 0.249.
The value for “CGACATGTCCCGCTTCTTTCATTAATCCAATAGCAACTGTTTTGCTATATACATTTACCTTTTAAGAGGAGGAAT” was 0.553.
The value for “CGACATGTCCCGCTTCTTTCATTAATCCATAAGCAACTGTTTTGCTATATACATTTACCTTTTAAGAGGAGGAAT” was 0.462.
For “CGACATGTCCCGCTTCTTTCATTAATCCATCAGCAACTGTTTTGCTATATACATATACCTTTTAAGAGGAGGAAT”, the “cleaved RNA product abundance” value came to 0.507.
The value for “CGACATGTCCCGCTTCTTTCATTAATCCATCAGCAACTGTTTTGCTATATACATTTACCTTTTAAGAGGAGGAAT” was 0.41.
Take “CGACATGTCCCGCTTCTTTCATTAATCCATTAACAACTGTTTTGCTATATACATTTACCTTTTAAGAGGAGGAAT”: the “cleaved RNA product abundance” value is 0.198.
Regarding “CGACATGTCCCGCTTCTTTCATTAATCCATTACCAACTGTTTTACTATATACATTTACCTTTTAAGAGGAGGAAT”, the “cleaved RNA product abundance” value was 0.262.
The result for “CGACATGTCCCGCTTCTTTCATTAATCCATTACCAACTGTTTTGCTATATACATTTACCTTTTAAGAGGAGGAAT” reads 0.17; that for “CGACATGTCCCGCTTCTTTCATTAATCCATTAGAAACTGTTTTGCTATATACATTTACCTTTTAAGAGGAGGAAT”, 0.244; that for “CGACATGTCCCGCTTCTTTCATTAATCCATTAGAAACTGTTTTGCTATATAGATTTACCTTTTAAGAGGAGGAAT”, 0.302.
The result for “CGACATGTCCCGCTTCTTTCATTAATCCATTAGAAACTGTTTTTCTATTTACATTTACCTTTTAAGAGGAGGAAT” reads 0.127.
The result for “CGACATGTCCCGCTTCTTTCATTAATCCATTAGCAAATGTTTTGCTATATACATTTACCTTTTAAGAGGAGGAAT” reads 1.18.
For “CGACATGTCCCGCTTCTTTCATTAATCCATTAGCAACTATTTTGCTATATACATTTACCTTTTAAGAGGAGGAAT”, the “cleaved RNA product abundance” value was 0.423.
